What was measured:
Assay type in all cases: biochemical, Z. mays
[1] = system: 4-hydroxyphenylpyruvate dioxygenase (HPPD); experiment: OFF rate ratio: release of inhibitor from pre-formed enzyme-inhibitor complex
In short: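 Inhibitor release from pre-formed complex (enzyme 7.2 μM, inhibitor 8 μM, 1 h RT) tracked as accelerating HPPD activity at 320 nm over 12 min, coupled via 50 nM HGD with 100 μM HPP at pH 7. OFF rate ratio: steady-state velocity relative to uninhibited initial velocity.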

[2] = system: 4-hydroxyphenylpyruvate dioxygenase (HPPD); experiment: ON rate ratio: HPPD reaction rate with vs without inhibitor in the 70 to 90 second interval
In short: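 Indicator of inhibitor on-rate: reaction velocity in the 70 to 90 second window with 4 μM inhibitor divided by that without. Reactions contained 100 μM HPP and 60 or 120 nM HPPD; slower binding gives a larger ratio.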

[3] = system: 4-hydroxyphenylpyruvate dioxygenase (HPPD); experiment: Estimate of kcat from initial rate at saturating hydroxyphenylpyruvate without inhibitor (ON rate ratio assay)
In short: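 kcat was estimated from the initial reaction rate with known enzyme level (60 or 120 nM HPPD). Hydroxyphenylpyruvate was at a saturating 100 μM, with no inhibitor present.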

[4] = system: 4-hydroxyphenylpyruvate dioxygenase (HPPD); experiment: Insensitivity parameter (ON × OFF) and trait fitness (ON × OFF × kcat/KM or × kcat); parameters: key to ON × OFF / Insensitivity, mesotrione, ON × OFF / Insensitivity, tembotrione, ON × OFF / Insensitivity, topramezone, ON × OFF / Insensitivity, sulcotrione, ON × OFF / Insensitivity, isoxaflutole (DKN), ON × OFF: insensitivity = ON rate ratio × OFF rate ratio (surrogate for KD)
In short: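 Trait fitness combines catalysis and insensitivity as kcat/KM × ON rate ratio × OFF rate ratio. The insensitivity parameter is the product of ON and OFF rate ratios, used in place of KD because the ON rate ratio is inverse.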

[5] = Table 7, tembotrione, combinatorial variants
[6] = inhibitor diketonitrile form of isoxaflutole (DKN)

B1: P056028-A-01 (protein)
chain: MGPTPTATAAGAAVAAASAAEQAAFRLVGHRNFVRFNPRSDRFQTLAFHHVELWCADAASAAGRFSFALGVPLAARSDLSTGNSAHASLLLRSGSLSLLFTAPYAHGADAATAALPSFSAAAARRFAADHGLAVRAVALRVADAEDAFRASVAAGARPAFGPVDLGRGFRLAEVELYGDVVLRYVSYPDGAAGEPFLPGFEGVASPGAADYGLSRFDHIVGNVPELAPAAAYMAGFTGFHEFAEFTTEDVGTTESGLNSMALANNSENVLLPLNEPVHGTKRRSQIQTFLDHHGGPGVQHIALASDDVLRTLREMRARSAMGGFEFLPPPLSDYYDGVRRCAGDVLTEAQINECQELGVMVDRDDEGVLLQIFTKPVGDRPTFFLEIIQRIGCMEKDEKGQEYQKGGCGGFGKGNFGQLFKSIEDYEKSLEAKRAAAAATAQGS
modifications: Zea mays variant form created by artificial means.
OFF rate ratio [1, 5]: 0.249 | Insensitivity, isoxaflutole (DKN), Rate ratio OFF [1, 6]: 0.44 | Insensitivity, mesotrione, Rate ratio OFF ([1]; inhibitor mesotrione): 1.00 | Insensitivity, sulcotrione, Rate ratio OFF ([1]; inhibitor sulcotrione): 1.22 | Insensitivity, tembotrione, Rate ratio OFF ([1]; inhibitor tembotrione): 0.43 | Insensitivity, topramezone, Rate ratio OFF ([1]; inhibitor topramezone): 0.60 | ON rate ratio [2, 5]: 0.697 | Insensitivity, isoxaflutole (DKN), Rate ratio ON [2, 6]: 0.82 | Insensitivity, mesotrione, Rate ratio ON ([2]; inhibitor mesotrione): 0.67 | Insensitivity, sulcotrione, Rate ratio ON ([2]; inhibitor sulcotrione): 0.80 | Insensitivity, tembotrione, Rate ratio ON ([2]; inhibitor tembotrione): 0.84 | Insensitivity, topramezone, Rate ratio ON ([2]; inhibitor topramezone): 0.85 | kcat ([3]; Megatable 3, shuffled variants): 0.652 s⁻¹ | kcat ([3]; Table 7, combinatorial variants): 0.652 s⁻¹ | ON × OFF ([4]; Megatable 3, shuffled variants): 0.173 | ON × OFF × kcat ([4]; Megatable 3, shuffled variants): 6.78 | ON × OFF [4, 5]: 0.173 | ON × OFF × kcat [4, 5]: 6.78 | Insensitivity, isoxaflutole (DKN), ON × OFF [4, 6]: 0.36 | Insensitivity, isoxaflutole (DKN), Trait fitness [4, 6]: 10.45 | Insensitivity, mesotrione, ON × OFF ([4]; inhibitor mesotrione): 0.67 | Insensitivity, mesotrione, Trait Fitness ([4]; inhibitor mesotrione): 19.6 | Insensitivity, sulcotrione, ON × OFF ([4]; inhibitor sulcotrione): 0.97 | Insensitivity, sulcotrione, Trait fitness ([4]; inhibitor sulcotrione): 28.4 | Insensitivity, tembotrione, ON × OFF ([4]; inhibitor tembotrione): 0.36 | Insensitivity, tembotrione, Trait fitness ([4]; inhibitor tembotrione): 10.43 | Insensitivity, topramezone, ON × OFF ([4]; inhibitor topramezone): 0.51 | Insensitivity, topramezone, Trait Fitness ([4]; inhibitor topramezone): 14.86
